# Assay results as given in the domain aggregation screens of Martell et al. (2025).
# Experiment: soluble fraction after stress (log2 fold change); higher = more stays soluble; pooled small domains, quantitative proteomics
# Conditions: stress: pH 4
# Method in brief: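 Custom libraries of small protein domains were pooled and measured with high-throughput quantitative proteomics after pH 4 stress. The read-out is the fold change in the amount of each domain that stays soluble after the acid stress, taken as a measure of aggregation propensity. Fold changes are on a log2 scale, and higher values mean more of the domain stayed soluble.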
row,Sequence,soluble fraction (log2)
1,HMPLAQRFGLTVAQARVLDLLAEGRSNRQIGELLGLTEGTVKIHVSAIMKAMGVSNRAEAALMANRKR,-0.29
2,HMPLDKDTTLDEIYRRFNMEHPADYKGHSLSMGDIVVFRQDGKQTAYYVDEGADYRQVPEFFVK,-0.173
3,HMPLDPFVVDALRDEIINTIKQHEPRVDLQKVQVQPIYTQNRVNISVQYKIVGLPIVEDITFVLQRP,0.135
4,HMPLEKGVVILDVTPSSAKVAVDGTSVETTYPLRLSAGLHQLSAEADGYDSITEYFKVETEKTTVTLDLSK,0.234
5,HMPLEQAELRLDLKQAILQMDRQTQELLLLRYVDGLSPGEAGKVLELSRFAVYRREKEALRKLRDYFSH,-0.834
6,HMPLLSEWDAALEELWAKLGDVPMDPETERMDAPFLGFPAGTPREDIWHWFDERHSKGVAHLLYG,-1.78
7,HMPLQYRLTVQPTPTNARVRLVNSAFTYRPGVALPPGSYIVEVSSSGYGAKRQAVQIADGDVTVPVELEKI,0.138
8,HMPLYKYYTSYQIEPGDTLTSIAQKYTINSDVSVQDYIDEVKKNNNLVSDKINSGSYLVVSYYSNEY,-1.24
9,HMPNIQLARNLKYLRLAYGLTQDDLGAFLNISRQAYSNYENLKRSPDLDSLIRLASLYHLSLDDLVSR,-1.24
10,HMPNTLAGIERYLGSGMVKGIGPVYASRLVSAFGTAVFDVIEQTPERLREIDGIGEKRTRKITSGWADQ,-0.242
11,HMPNYIDAISALLTLKGVGDRKHASTMANILNLQYNSAKQKLDGKRGITLDEVKKVFQYFNEPF,-0.76
12,HMPPAPGHDLTEREREVLRLLVEGLSNQEISDRLVISQSTVKNHVSSVLSKLDAANRAEAVALALKNQL,-0.547
13,HMPPELSDEVMEEAMSYLKNQYLNHGVKLEDYPALNKLFVDEAFRSEVIRKTQSNYKISYQSAMASLD,-0.928
14,HMPPENVSVRREQIAEDKKTVYNVWVTKGNKTVLYSKVVYAWGGVYFFRDLNTSISENMYKQADAGLVN,-0.0222
15,HMPPGQIVNEALQRAGNSTPTGTAISAQDDIKLYTSALAELATQGDTSSASVAKLREALQTAQVAFYNAV,0.0927
16,HMPPITIVPNDNGVPIIRSQTPEISTAVNVELKAAGINTHTIDGTSIRVPKAQAQVAQQIVSRVNTRFT,0.266
17,HMPPNHADLKSSGLKATLPRLKILEIFQNSQVRHLSAEDVYKLLLAENLDVGLATVYRVLTQFEQAGL,-0.511
18,HMPPNRDDEHLQALRDYYAANRRIPSLQRVASLLGFSSRSAAVKLMGRLADEGFIERTADDDAWITGKRFF,-0.371
19,HMPPNVLSEREQEVLQLAADGMSNKEMGSELYIAPTTVRDHMQSIMRKLQVNSRTAAAVAGLKLGLLD,-0.422
20,HMPPPTLVESAYNHLKADIISSYLKPDEKINLKDLSQRYQVSETPIKQALNRLISEGLIISVPRKGMWVH,0.065
21,HMPPPVERAIRKLGHDLSLARRRRRISQDSMAQRMGASVSTVRRIEKGDPRIPIHFIARAMMILGDLKAL,-0.105
22,HMPQFDRQAFGQRLRLLRDYREMTQQQVANFLNVDRSTYSYYENGKTEPSITVLMRMAELFSVTLDSLLNM,-1.05
23,HMPQIDLYPFEVRIEQDNNAAEYAVRFLDVPNIIGSGASIDEAIVEARGNLKEYLDYLIDTNRDIPLPS,-1.43

row,Sequence,soluble fraction (log2)
1,HMPQISQDDLMEAGLIVGKEAKQRRIKLGEILGIGYVNAKQLPKRLQLFQVAKSDFEQAVQQIDG,0.134
2,HMPQKSDLTMEEYNKLGLAGGSGSRKLREQVGIRLSVGYGNSKQFYNRLHTFGISLDELKTAVEEVKNG,0.295
3,HMPQNVSVPDVTNMTQAEAESKLKEKNLAVGNIIPELSTTVEKDKVTRTNPESGSNVRKNSKVDIYVSQG,0.327
4,HMPQPDVIEVRQGIVTGMRPDRRTGWLRDEEDAAGEPKSFSIDVITPKGRTPGKGAVVTYTLTNGKITEVK,0.143
5,HMPRELKVRDVSHQHAGHAGWREGGETHFEVDMKADVFAGTSRVAAHRMVNKVLANELASRVHALQLNLS,-0.308
6,HMPRENLAYTLIMDGIVQHKNLPRASVTEAWLKQELQKAGINDFRQVLIAGIDSKGQLYFQPKQK,-0.392
7,HMPRPLVAPMPGLIVRVTAVVGDSVDAGQGLVVMEAMKMENELRTTTAGVVKTVHVQPGVAVEKGALLIEF,-0.766
8,HMPRTEILMVDEEMEGERLDAFVAEQLDELSRSLVKTLIENGEIRVDGKQQKPSYRLKAGEEIIVEIPA,-0.438
9,HMPSDTNLIGKTGIAYTTLRPGGTALIDDRKVDVVADSEYIEKDKKIKVIRVEGIKVVVTAVK,0.194
10,HMPSGRIRWFDAKKGYGFIAGDDGKDVFLPQTALPQGVRNPRKGAKVEYSVIEGNRGQVAMGVTMV,0.0307
11,HMPSHALFWTLLKEVPGYDPHYKDVIKEGIVHEHSGGRTTSLSEMYTKYPREYSLMIEAMKG,-0.326
12,HMPSKTFYNLSQEKQQKIIDASEKEFSNNLYQDVSLNQIIKNSNISRGSFYMYFTDKEDLYFYLLNEY,≥ 0.43
13,HMPSLGADIRALRKSRKMTLVALADALGRSVGWLSQVERDKSHATIADLGRMAEVLDVSISSFL,-0.209
14,HMPSLSAILHDARVAAGLSMRQASAASGLSIGFISMLEQGKVQDISLQRLGRLVTAYDLEPLDVIEAAG,-0.848
15,HMPSSAYGPYKNVFLSNSELTKLKNELPTSWEHYINRLSEYMRSTGRQYQSHAATILRWAATDRNS,0.0263
16,HMPSSFLVKVTADALNIRSGPGVANRITGTIKDKGTYTIVDTKDDWGKLKSGVGWIHLGYTKRLD,0.0923
17,HMPSSQQVMRRLATVGPDKTLEELQRQHDAHLRKYGEFNDFRGERQQMRQEMERIKEAKQGTGPYAHLMG,-0.0742
18,HMPTAGYMTVTPDRVKEGQQFLATLRPPYVLKADGLAAGKGVLILPELEEAQRELEEMLGGFLGELSVNR,-0.303
19,HMPTERLSMRRIRELLRLRFEVGLSTRLIATALGISKGAVGDYLQRAQVAGLGWPLPENLNDAALERRLFP,≥ 0.43
20,HMPTGRVVIPLNRLTASDVARILDEAYGRDHNFEVVKPSRLAKGIIVIGPKSEIDGIKELLAH,-0.173
21,HMPTLLGYKHILSAWNPDTNTVFRTSYGYDGEYGSREEAMQALIKMIQEGGKATPRGIEESEVPIY,0.0029
22,HMPTLSKVGSQGEEVRQIQTKLKNWGYLNDRVDGIYGPKTRDAVIWFQKKNGLVADGIAGPATLKAMGIFT,≥ 0.43
23,HMPTMVAQINEIVQAKLPGSGLKDYTIRLVESQRDGVVVWVNGTRYLGVDEVAEPQVQALLKEAVAEWERS,-0.942

row,Sequence,soluble fraction (log2)
1,HMPTQGELAILRVLWEQGPSTVRAVWEKLNSQSGTGYTTALKLMQIMAQKGLVSRDESQKTHVYRA,-0.511
2,HMPTTRPEAEAHYETHQRYHDLQIDVEGREAFKVATGSLTLVQEFDEKDDYDLSIPTPRSPAILLTT,-0.208
3,HMPVFYVTGNRVNFRAGPSTGDRVIGSLSQGAAVEVLGPTDDAWINIRDSDGRVGYMSAQFLSQ,-0.213
4,HMPVLDETVPAALDGERIDRVVALLADVSRNRAGIAIAAGSVRLDGAVVTQRSRKVRADEELVVDGLER,-0.00165
5,HMPVNEEFKRLIDKIKYEFSINQAQISERLGVKSTYLSDMINGRVPYNESMQKKIHEVFHIG,0.114
6,HMPVNGEFIERIKVMVLENKAKGKKERLTKTRMHQLLQEEGYKGSYSAFTHQVRIIEEELGVNQKEAH,0.235
7,HMPVSRMRARHEALARGVMGIHAGGFSAVYGYRKVWHGLIGKGWDPGEVGRDQVMNIMRGLGMQGVRR,0.22
8,HMPVSVAEQKQILAEALQERGHATFRELIENADNRMIVVGRFLALLELYRDGTVRFEQERALGELTIHWEE,-1.22
9,HMPYIVNHIHLKSEDPKITADWFVKAFNFEIVSDVVRHFGDRFIVTKAEGGMTINISGVRDGEEL,0.262
10,HMPYNNLADAPASWKKLDDTPLTLGQVNWIAKIYDALVAKGMEKGAAAGTAISRFKKSFKVADGKWVQV,0.173
11,HMPYNRRYLISNADGALYTVEENGLVKLEETNLTAELFETRGMQDIPDGKLLITLHDPTILYWHDSENLFP,-2.32
12,HMPYSPTPGSAPARLIAHLQEHGDSVNRTAIAELLQVDRKNVHNYLARAVTHGLLLRHGGGAYSLP,0.207
13,HMQADEENPKYPVITDGVIQLEVLESIDKTEEWLVERLAKDGYNNVSEIFIAEYENGNLSIVT,-0.742
14,HMQADPYTVLGVLRDVTDGELKREYRKLVREHHPDALIAQGVPQEFVDIANNKLAVINAAYERIAKQRGL,-0.293
15,HMQAGILTDTAAKNARIKKIDTERLEAELDQKRIVIVTGFQGVDRNQNITTLGRGGSDTSAVALAAAVSIT,0.0198
16,HMQAKDVEIPNFVGKTLAEANADNKDNFNFVVESKYDASKELGVILEQEPAADSKLVKSGSQITLKV,0.0557
17,HMQALDNNDALEEIIKKVITENPSQVTEFRNGKDSLMNFLVGKVMAASGGKANPKTLPETIEKIIK,0.277
18,HMQAMDYEGFKKEILKMSDIDLSLYKEKQMKRRIDSLIRKNGYEHYEDYVQALKQDSGLYNEFINYLTI,-1.33
19,HMQANLPFSELLADVDRGLISDVTIKGDQVSGHYTDGRTFNTFIPPEADLVRRLTEKNVRIAAVPD,-0.00341
20,HMQAPAFDYSKVQEGVTVNHKIFGDGTVSWIDKARKYIRVQFSVGEKMFTMETAFVQGFLSL,-1.03
21,HMQAPVDPIVLGKMGSSYGIRGWLRVFSSTEDAESIFDYQPWFIQKAGQWQQVQLESWKHHNQDMIIKLN,0.179
22,HMQARLPFSFAKRHGVILLAATGEGQSDVIYKSGFDIGALAEVRRFVAGEIALKEVDGPSFDRQLTLTYQN,-1.34
